Tests used:
Peptide (C4 and C2) = assay: fluorescence titration, curve fitting
protein (GFP & Nanobody) = assay: fluorescence titration, curve fitting

B1: VEPEP-3a (peptide)
peptide: XKWFERWFREWPRKRR
HELM: PEPTIDE1{[ac].[bAla].K.W.F.E.R.W.F.R.E.W.P.R.K.R.R.[SCCN[*:1]]}$$$$V2.0
SMILES: CC(=O)NCCC(=O)N[C@@H](CCCCN)C(=O)N[C@@H](Cc1c[nH]c2ccccc12)C(=O)N[C@@H](Cc1ccccc1)C(=O)N[C@@H](CCC(=O)O)C(=O)N[C@@H](CCCNC(=N)N)C(=O)N[C@@H](Cc1c[nH]c2ccccc12)C(=O)N[C@@H](Cc1ccccc1)C(=O)N[C@@H](CCCNC(=N)N)C(=O)N[C@@H](CCC(=O)O)C(=O)N[C@@H](Cc1c[nH]c2ccccc12)C(=O)N1CCC[C@H]1C(=O)N[C@@H](CCCNC(=N)N)C(=O)N[C@@H](CCCCN)C(=O)N[C@@H](CCCNC(=N)N)C(=O)N[C@@H](CCCNC(=N)N)C(=O)NCCS
B1 showed a Kd (Peptide (C4 and C2)) of 10 to 20 nM and a Kd (protein (GFP & Nanobody)) of 1000 nM.
